Reference: patent US20090298765A1 (Takeda / Millennium, published 2009)
Non-standard residues stand in square brackets, D forms with d. No end group written: not given here. *: point of attachment. GuAmb = 4-guanidinomethylbenzoyl, N=C(N)NCc1ccc(C(=O)*)cc1; Propanoyl(3-indol-3-yl) = O=C(CCc1c[nH]c2ccccc12)*; Phe(4-F) = N[C@@H](Cc1ccc(F)cc1)C(=O)O; Arg(Me) = CNC(=N)NCCC[C@H](N)C(=O)O; 4Pal = N[C@@H](Cc1ccncc1)C(=O)O; Orn = NCCC[C@H](N)C(=O)O; azaGly = NNC(=O)O

How the values were obtained:
[1] = target: T1, human OT7T175 (metastin receptor) (human, UniProt Q969F8 1-398); test: cell-based or functional assay
T1 sequence (Q969F8 whole entry L364H): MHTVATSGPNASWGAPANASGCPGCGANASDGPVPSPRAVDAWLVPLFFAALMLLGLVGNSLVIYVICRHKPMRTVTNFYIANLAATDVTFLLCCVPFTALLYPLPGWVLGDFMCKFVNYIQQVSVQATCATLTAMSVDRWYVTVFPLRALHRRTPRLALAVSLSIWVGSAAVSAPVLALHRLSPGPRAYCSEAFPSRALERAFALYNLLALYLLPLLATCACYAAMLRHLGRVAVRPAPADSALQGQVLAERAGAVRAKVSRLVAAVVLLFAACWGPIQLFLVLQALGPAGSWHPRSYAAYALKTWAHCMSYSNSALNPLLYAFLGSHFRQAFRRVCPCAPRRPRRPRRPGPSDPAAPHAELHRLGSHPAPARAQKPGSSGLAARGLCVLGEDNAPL

[2] = target: T1, human OT7T175 (metastin receptor); test: competition with Cy-5 metastin (40-54) on hOT7T175-CHO cells, FMAT
Protocol: hOT7T175-Expressed CHO cells were cultured in MEM-α medium (nucleic acid-free) containing 10% dialyzed serum. The medium was removed and the adhered cells were washed with PBS. Then, PBS containing 5 mM EDTA was added and the cells were scraped from a flask with a cell scraper.
To each well of a 96-Well Black Clear Bottom Microplate (Applied Biosystems, Inc.), 10 μL of assay buffer containing 1% dimethylsulfoxide was added to examine total binding, 10 μL of 10 μM non-labeled peptide (having the same amino acid sequence as that of labeled one) solution diluted with assay buffer to examine non-specific binding, and 10 μL of a test compound diluted with assay buffer to examine a binding inhibition activity of the test compound, and furthermore, 90 μL each of the cell suspension was dispensed to each well. […] Specific binding is calculated as non-specific binding subtracted from total binding. The binding inhibition activity of a test compound is shown by a ratio of the value obtained by subtracting a measured value in presence of a test compound from the total binding to the specific binding.

[3] = target: T1, human OT7T175 (metastin receptor); test: cell-based or functional assay; remark: listed apart in the source

| Binder | Ca ion level-increasing activity (FLIPR) [1] | IC50 [2] | Ca ion level-increasing activity (FLIPR, 40 s) [3] |
| --- | --- | --- | --- |
| YNWNSFGLXF (Nar(Me)9; C-terminal amide, also called Compound No. 311) [[Nar(Me)9]MS10] | 1 x Metastin (1-54) | 470 nM | 6.2 EC50/MS10 EC50 |
| YNWNSFGL[Orn]F-NH2 (N-terminus assumed; SMILES CC(C)C[C@H](NC(=O)CNC(=O)[C@H](Cc1ccccc1)NC(=O)[C@H](CO)NC(=O)[C@H](CC(N)=O)NC(=O)[C@H](Cc1c[nH]c2ccccc12)NC(=O)[C@H](CC(N)=O)NC(=O)[C@@H](N)Cc1ccc(O)cc1)C(=O)N[C@@H](CCCN)C(=O)N[C@@H](Cc1ccccc1)C(N)=O, also called Compound No. 314) [[Orn9]MS10] | 1 x Metastin (1-54) | 470 nM | 4.4 EC50/MS10 EC50 |
| [dY][dN][4Pal]NSF[azaGly]L[Arg(Me)][Phe(4-F)]-NH2 (N-terminus assumed; SMILES CNC(=N)NCCC[C@H](NC(=O)[C@H](CC(C)C)NC(=O)NNC(=O)[C@H](Cc1ccccc1)NC(=O)[C@H](CO)NC(=O)[C@H](CC(N)=O)NC(=O)[C@H](Cc1ccncc1)NC(=O)[C@@H](CC(N)=O)NC(=O)[C@H](N)Cc1ccc(O)cc1)C(=O)N[C@@H](Cc1ccc(F)cc1)C(N)=O, also called Compound No. 317) [[D-Tyr1,D-Asn2,Pya(4)3,AzaGly7,Arg(Me)9,Phe(4F)10]MS10] | 1 x Metastin (1-54) | 2.1 nM | – |
| [dY]NWNSFGL[Arg(Me)]F-NH2 (also: bond 6-7 CONH replaced by NHCO (reversed)) [[6Ψ7,NHCO,D-Tyr1,Arg(Me)9]MS10] | 3 x Metastin (1-54) | – | 3.1 EC50/MS10 EC50 |
| {4‑imidazoleacetyl}-NSF[azaGly]L[Arg(Me)]F-NH2 (also called Compound No. 323) [des(1-3)-4-Imidazoleacetyl-[AzaGly7,Arg(Me)9]MS10] | 1 x Metastin (1-54) | 280 nM | – |
| GuAmb-F[azaGly]L[Arg(Me)]F-NH2 (SMILES CNC(=N)NCCC[C@H](NC(=O)[C@H](CC(C)C)NC(=O)NNC(=O)[C@H](Cc1ccccc1)NC(=O)c1ccc(CNC(=N)N)cc1)C(=O)N[C@@H](Cc1ccccc1)C(N)=O) [des(1-5)-GuAmb-[AzaGly7,Arg(Me)9]MS10] | 2 x Metastin (1-54) | – | 4.9 EC50/MS10 EC50 |
| GuAmb-FGL[Arg(Me)]F-NH2 (SMILES CNC(=N)NCCC[C@H](NC(=O)[C@H](CC(C)C)NC(=O)CNC(=O)[C@H](Cc1ccccc1)NC(=O)c1ccc(CNC(=N)N)cc1)C(=O)N[C@@H](Cc1ccccc1)C(N)=O) [des(1-5)-GuAmb-[Arg(Me)9]MS10] | 1 x Metastin (1-54) | – | 5 EC50/MS10 EC50 |
| {Propanoyl(3-indol-3-yl)}-F[azaGly]L[Arg(Me)]F-NH2 (SMILES CNC(=N)NCCC[C@H](NC(=O)[C@H](CC(C)C)NC(=O)NNC(=O)[C@H](Cc1ccccc1)NC(=O)CCc1c[nH]c2ccccc12)C(=O)N[C@@H](Cc1ccccc1)C(N)=O) [des(1-5)-3-(3-Indolyl)propionyl-[AzaGly7,Arg(Me)9]MS10] | 2 x Metastin (1-54) | – | 5.9 EC50/MS10 EC50 |
| Y[dN]WNSFGLRF-NH2 [[D-Asn2]MS10] | – | – | 2.7 EC50/MS10 EC50 |
| YNWNSFGL[Arg(Me)]F-NH2 (also called Compound No. 82) [[Arg(Me)9]MS10] | – | 4.1 nM | 1 EC50/MS10 EC50 |
| [dY]NWNSFGLRF (not fully specified (C-terminus); also: C-terminal thioamide (CSNH2)) [[10Ψ,CSNH,D-Tyr1]MS10] | – | – | 1.5 EC50/MS10 EC50 |
| [dY]NWNSFGL[Arg(Me)]F-NH2 (also: bond 6-7 CONH replaced by CH2NH, also called Compound No. 308) [[6Ψ7,CH2NH,D-Tyr1,Arg(Me)9]MS10] | – | 350 nM | 2.6 EC50/MS10 EC50 |
| [dY]NWNSF[azaGly]L[Arg(Me)][Phe(4-F)]-NH2 (also called Compound No. 318) [[D-Tyr1,AzaGly7,Arg(Me)9,Phe(4F)10]MS10] | – | 0.99 nM | 2.9 EC50/MS10 EC50 |
